Common to all, as to assay: spectrophotometric decarboxylation kinetics
What all share (type): biochemical, Bordetella bronchiseptica
Common to all, as to conditions: assay conditions in Supporting Information

Substrate in series [1]: Cc1ccc(C(O)(C(=O)O)C(=O)O)o1
Substrate in series [2]: O=C(O)C(O)(C(=O)O)c1cc2ccccc2o1
Substrate in series [3]: O=C(O)C(C(=O)O)c1ccco1
Substrate in series [4]: O=C(O)C(O)(C(=O)O)c1cccs1
Substrate in series [5]: O=C(O)C(O)(C(=O)O)c1ccc2sccc2c1
Substrate in series [6]: O=C(O)C(O)(C(=O)O)c1cccnc1
Substrate in series [7]: O=C(O)C(O)(C(=O)O)c1ccco1

For orientation: Km means the concentration of substrate that gives half-maximal velocity. One may read the kcat as the maximal rate divided by the concentration of active sites. One may read the kcat/Km as the turnover number divided by the Michaelis constant.

B1: aryl/alkenyl malonate decarboxylase (AMDase) (Bordetella bronchiseptica) (protein)
chain: MQQASTPTIGMIVPPAAGLVPADGARLYPDLPFIASGLGLGSVTPEGYDAVIESVVDHARRLQKQGAAVVSLMGTSLSFYRGAAFNAALTVAMREATGLPCTTMSTAVLNGLRALGVRRVALATAYIDDVNERLAAFLAEESLVPTGCRSLGITGVEAMARVDTATLVDLCVRAFEAAPDSDGILLSCGGLLTLDAIPEVERRLGVPVVSSSPAGFWDAVRLAGGGAKARPGYGRLFDES
notes: AMDase, construct details only in Supporting Information
For the protein B1, the Michaelis-Menten constant (Km) in series [1] was 9.8 ± 2.2 mM; in series [2] it was 8.2 ± 1.6 mM; in series [3], 10.1 ± 4.5 mM; in series [4], 4.3 ± 0.5 mM; in series [5], 3.1 ± 0.17 mM; in series [6], 6.4 ± 0.6 mM. Further, in series [7], the Km is 8.6 ± 2.1 mM. The catalytic constant (kcat) was 37.1 ± 8.8 s⁻¹ in series [1]; 278 ± 33.9 s⁻¹ in series [2]; 166 ± 10.6 s⁻¹ in series [4]; 148 ± 4.6 s⁻¹ in series [5]; 225 ± 36.3 s⁻¹ in series [6]; 61.9 ± 6 s⁻¹ in series [7]. Also, the kcat/Km in series [1] was 3800 ± 500 M⁻¹ s⁻¹; in series [2] it was 33900 ± 320 M⁻¹ s⁻¹; in series [4], 38600 ± 200 M⁻¹ s⁻¹; in series [5] it was 48300 ± 170 M⁻¹ s⁻¹; in series [6], 35300 ± 250 M⁻¹ s⁻¹; in series [7], 6400 ± 400 M⁻¹ s⁻¹.

The values are drawn from PMC4517146, “Enzymatic Enantioselective Decarboxylative Protonation of Heteroaryl Malonates” (Chemistry (Weinheim an Der Bergstrasse, Germany), 2015).
